The source of these data is the supplement of paper PMC10567573.

The nature of this data set: protein stability index of a GFP-peptide fusion (GPS, HEK-293T) (PSI 1-6); higher = more stable. The settings on record: c terminus: a fixed tail appended.

± gives the standard deviation.
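Also: 24-mer peptide tiles fused after GFP, lentivirally expressed, FACS-sorted into six equal bins by GFP/DsRed ratio, decoded by Illumina sequencing, PSI is the read-weighted mean bin number.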

Take CGLLPISPEALSLGEVAYHDYHGI [ADD1]: the protein stability index was found to be 2.18 ± 0.24 (treatment: DMSO) and 2.35 ± 0.41 (treatment: MLN4924 1 uM, 8 h).
Taken in the same sequence, the figures for PLPAGSLPPYPPYFEGAPFPHPLW [PWWP2B] were 2.58 ± 0.31 and 2.64 ± 0.37.
Taken in the same sequence, the figures for HKSAFNDWFSGHLNFQIEHHLFPT [FADS1] were 2.11 ± 0.18 and 2.07 ± 0.41.
For HVTNAMVLVNVLQAIYVIDFFWNE [DHCR7], the protein stability index by setting is: (treatment: DMSO) 3.08 ± 0.17; (treatment: MLN4924 1 uM, 8 h) 2.99 ± 0.34.
ATQIQQLLQDKQFELALQLAEMKD [VPS39]: the protein stability index is, setting by setting: (treatment: DMSO) 3.11 ± 0.32; (treatment: MLN4924 1 uM, 8 h) 3.41 ± 0.43.
For SSKSSGDLVDLFDGTSQSTGGSAD [CLINT1], the protein stability index (treatment: DMSO) amounted to 5.41 ± 0.22 and the protein stability index (treatment: MLN4924 1 uM, 8 h) was 5.55 ± 0.21.
Taken in the same sequence, the figures for NFDDILNVCDDYDVTCNEFFFDRN [KCNG1] were 3.4 ± 0.28 and 3.27 ± 0.49.
Taken in the same sequence, the figures for TKFEVRLLRDPADASEAHESSSRG [CHGB] were 4.61 ± 0.26 and 4.64 ± 0.12.
DHIIEKKRTIIPTLVEAIKEQDGR [DFFB] registered a protein stability index (treatment: DMSO) of 4.63 ± 0.24 and a protein stability index (treatment: MLN4924 1 uM, 8 h) of 4.68 ± 0.2.
Taken in the same sequence, the figures for DLEPGVLMSAQTITSETTSTTTTT [EPB41L3] were 5.19 ± 0.32 and 5.17 ± 0.11.
Taken in the same sequence, the figures for GSSGASDQDTLAPLPHPGAAPWPM [DVL3] were 4.2 ± 0.15 and 4.3 ± 0.09.
Taken in the same sequence, the figures for LTISAAFNIVYIYTSELYPTVIRN [SLC22A15] were 3.19 ± 0.14 and 3.13 ± 0.33.
Take PDQEAEPQEAAGAQGRAGAPVPEP [EPB41L3]: the protein stability index (treatment: DMSO) came out at 5.69 ± 0.21 and the protein stability index (treatment: MLN4924 1 uM, 8 h) was determined as 5.69 ± 0.23.
Taken in the same sequence, the figures for TGYPYRYPALREKSKKYSDVEVPA [ADD1] were 3.67 ± 0.081 and 3.66 ± 0.044.
Taken in the same sequence, the figures for EVAAQLPAVRQLLPCARVQICRAQ [ZSWIM9] were 2.42 ± 0.23 and 2.77 ± 0.35.
For the sequence ISFHFEVTNHNIRLFEDVRSWMFR [TRIM43], the protein stability index by setting is: (treatment: DMSO) 2.7 ± 0.96; (treatment: MLN4924 1 uM, 8 h) 3.24 ± 0.28.
Taken in the same sequence, the figures for SGLIYLTNHIAPHARNGLSLKEEH [IKZF1] were 2.58 ± 0.37 and 2.71 ± 0.19.
On to HQLLEPIRDFEARKCPVHGKTMEL [TRIM29], for which the protein stability index by setting is: (treatment: DMSO) 3.89 ± 0.17; (treatment: MLN4924 1 uM, 8 h) 3.84 ± 0.17.
Consider FQPQPVQPQQGYIPPMAQPGLPPV [ZNF207], for which the protein stability index by setting is: (treatment: DMSO) 3.5 ± 0.31; (treatment: MLN4924 1 uM, 8 h) 3.74 ± 0.26.
As for AERLFENQLVGPESIAHIGDVMFT [APMAP], the protein stability index was found to be 2.99 ± 0.38 (treatment: DMSO) and 3.16 ± 0.31 (treatment: MLN4924 1 uM, 8 h).
Regarding PALCFAAAIFSLFFVPLSYLLMVT [TMEM175], the protein stability index is, setting by setting: (treatment: DMSO) 3.03 ± 0.093; (treatment: MLN4924 1 uM, 8 h) 3.31 ± 0.21.
For WESRTGDQYSYSSLVMGSQTESAL [LCOR], the protein stability index runs as follows: (treatment: DMSO) 3.44 ± 0.27; (treatment: MLN4924 1 uM, 8 h) 3.51 ± 0.46.
Taken in the same sequence, the figures for RRKGEMGLSAEDGVWAVIISHQQC [TRIM15] were 2.36 ± 0.49 and 2.16 ± 0.21.
Taken in the same sequence, the figures for EVPLEVLRQRESKWLDMLNNWDKW [TBC1D10A] were 2.8 ± 0.18 and 3.17 ± 0.49.
Taken in the same sequence, the figures for LSEALKEATKEVHTQAENAEFMRN [HMOX1] were 4.92 ± 0.1 and 5.01 ± 0.48.
Consider KCLKFLGSRHPTLVLPLVPELLST [INTS4], for which the protein stability index turned out to be 2.29 ± 0.41 (treatment: DMSO) and 2.23 ± 0.18 (treatment: MLN4924 1 uM, 8 h).
Regarding MSKLGKFFKGGGSSKSRAAPSPQE [CHMP4C], the protein stability index is 3.56 ± 0.33 (treatment: DMSO) and 3.76 ± 0.38 (treatment: MLN4924 1 uM, 8 h).
Taken in the same sequence, the figures for IKGKEGSALTEGAKEEGGEEVAKA [EPB41L3] were 5.81 ± 0.17 and 5.86 ± 0.12.
For the sequence LSQPTTNLVAGCLQLNARSFMMGQ [NEUROD6], the protein stability index (treatment: DMSO) is 2.31 ± 0.17 and the protein stability index (treatment: MLN4924 1 uM, 8 h) was found to be 2.21 ± 0.26.
Taken in the same sequence, the figures for AIETAMEDLKGHVAETSGETIQGF [TPRG1] were 4.82 ± 0.26 and 5.03 ± 0.3.
Taken in the same sequence, the figures for LAAPSLHVKEQLPCAGLNCQALDA [TLE6] were 3.92 ± 0.25 and 3.97 ± 0.28.
Taken in the same sequence, the figures for EEENAQLRGALQQGEAFQRALESE [PBXIP1] were 5.43 ± 0.32 and 5.39 ± 0.49.
The sequence SLGYKEIRKGESRSEALAVDGAGK [CHGA] came in with a protein stability index (treatment: DMSO) of 5.03 ± 0.52 and a protein stability index (treatment: MLN4924 1 uM, 8 h) of 4.95 ± 0.31.
Take VHRLDLILCNKTAYQEVFKPENIS [SMG5]: the protein stability index was 2.12 ± 0.48 (treatment: DMSO) and 2.15 ± 0.4 (treatment: MLN4924 1 uM, 8 h).
Consider RVQAAAFGPGQTLLSSVHVLDLEA [ALKBH7], for which the protein stability index was determined as 3.02 ± 0.42 (treatment: DMSO) and 3.3 ± 0.32 (treatment: MLN4924 1 uM, 8 h).
Taken in the same sequence, the figures for KKVLNLLKGAFPARLKKVLIVGAP [PTPN9] were 2.81 ± 0.83 and 2.99 ± 0.43.
Take FNMLHDNSKPCISLNGPLSTSRHV [ADAMTS4]: the protein stability index runs as follows: (treatment: DMSO) 3.21 ± 0.22; (treatment: MLN4924 1 uM, 8 h) 3.26 ± 0.25.
Taken in the same sequence, the figures for WERVHLIVAGGYDERVLENVEHYQ [ALG2] were 2.33 ± 0.19 and 2.48 ± 0.3.
Turning to STPLMEAAQEGHLELVKYLLAAGA [ANKRD17], the protein stability index runs as follows: (treatment: DMSO) 2.22 ± 0.15; (treatment: MLN4924 1 uM, 8 h) 2.48 ± 0.65.
Take AFASGSDDATCRLYDLRADREVAI [GNB5]: the protein stability index (treatment: DMSO) worked out at 3.12 ± 0.22 and the protein stability index (treatment: MLN4924 1 uM, 8 h) turned out to be 2.95 ± 0.11.
VGSVHVDSGASAITRESHTHRDRP [CSNK1G1]: the protein stability index was 4.85 ± 0.25 (treatment: DMSO) and 4.66 ± 0.32 (treatment: MLN4924 1 uM, 8 h).
On to VLKVLSVCSSNKPAIVEAGGMQAL [CTNNB1], for which the protein stability index reads like this: (treatment: DMSO) 2.46 ± 0.24; (treatment: MLN4924 1 uM, 8 h) 2.46 ± 0.098.
AGFCMFVLSLVKKHYRLQFYMFAW [CDS1]: the protein stability index was 2.05 ± 0.36 (treatment: DMSO) and 2.16 ± 0.38 (treatment: MLN4924 1 uM, 8 h).
Taken in the same sequence, the figures for GSRTPGRSELVEGCGWRCPEHGDR [TRIM14] were 4.19 ± 0.3 and 4.48 ± 0.074.
HPRALPPDARPHRRPHELLPVGGR [HAGHL]: the protein stability index runs as follows: (treatment: DMSO) 4.48 ± 0.12; (treatment: MLN4924 1 uM, 8 h) 4.33 ± 0.23.
Taken in the same sequence, the figures for SDSLLTGMAFFKMREMFFEDHIDD [CNOT7] were 2.58 ± 0.054 and 3.3 ± 0.48.
Sequence CPLTRSNGDLSRSLSPSPLGSSAA [FCHO1] displayed a protein stability index (treatment: DMSO) of 4.17 ± 0.22 and a protein stability index (treatment: MLN4924 1 uM, 8 h) of 4.17 ± 0.33.
In the case of SHLSDTGISALVEIPKNCVVAAVG [WDR41], the protein stability index runs as follows: (treatment: DMSO) 3.09 ± 0.31; (treatment: MLN4924 1 uM, 8 h) 3.22 ± 0.25.
Taken in the same sequence, the figures for SIPLTPGDTPIRKKEELLFDDGDD [FBF1] were 5.51 ± 0.54 and 5.62 ± 0.17.
The sequence VSGLLVGYELGIISGALLQIKTLL [SLC2A12] gave a protein stability index (treatment: MLN4924 1 uM, 8 h) of 2.97 ± 1.2.
On to RKISVNAKDEDQWTALHFAAQNGD [RIPK4], for which the protein stability index reads like this: (treatment: DMSO) 4.19 ± 0.26; (treatment: MLN4924 1 uM, 8 h) 4.59 ± 0.53.
For QNNENNISCVERGWSTPPKCRSTI [CFHR2], the protein stability index was found to be 3.97 ± 0.29 (treatment: DMSO) and 4.11 ± 0.34 (treatment: MLN4924 1 uM, 8 h).
Take PTHPSSTHALAEWASRREAFAQRP [CDC25B]: the protein stability index (treatment: DMSO) was 4 ± 0.26 and the protein stability index (treatment: MLN4924 1 uM, 8 h) is 3.91 ± 0.3.
On to DAINEEIRMIQEEKESTELRAEEI [PPFIA4], for which the protein stability index worked out at 5.71 ± 0.15 (treatment: DMSO) and 5.51 ± 0.25 (treatment: MLN4924 1 uM, 8 h).
Taken in the same sequence, the figures for EEVVSTLDAVQVLSGVSQLLPKSR [FCHO1] were 4.3 ± 0.28 and 4.43 ± 0.24.
Taken in the same sequence, the figures for LSVIQMVAFLEQRASALLASCSKN [FBXO34] were 2.81 ± 0.35 and 2.71 ± 0.71.
Taken in the same sequence, the figures for RYNFTPDPDFKDLGALKPLPACEF [NETO1] were 2.87 ± 0.19 and 2.93 ± 0.33.
With SAVADKLDNSRSILKRRYYRQHCT [CTDNEP1], the protein stability index was 3.24 ± 0.33 (treatment: DMSO) and 3.7 ± 0.49 (treatment: MLN4924 1 uM, 8 h).
As to EFLTNELSRKLMQLQHEKAELEQH [CCDC6], the protein stability index reads like this: (treatment: DMSO) 2.98 ± 0.16; (treatment: MLN4924 1 uM, 8 h) 3.05 ± 0.3.
LKIELETYKLKCKALQEENRDLRK [CCDC6]: the protein stability index is, setting by setting: (treatment: DMSO) 4.25 ± 0.29; (treatment: MLN4924 1 uM, 8 h) 4.63 ± 0.23.
With KAHSGRIPISLETQAHIQECKHPS [MCOLN1], the protein stability index by setting is: (treatment: DMSO) 4.5 ± 0.12; (treatment: MLN4924 1 uM, 8 h) 4.65 ± 0.14.
Consider RRENYGVPPRRATISSWRNDRMST [RBMY1A1], for which the protein stability index runs as follows: (treatment: DMSO) 3.31 ± 0.28; (treatment: MLN4924 1 uM, 8 h) 3.43 ± 0.068.
Taken in the same sequence, the figures for KAVEEELDAEDRPAWNSKLQYILA [SLC6A17] were 2.96 ± 0.38 and 3.15 ± 0.24.
For EDSKELRALRKMVSNMSGPSGEEE [CBY2], the protein stability index runs as follows: (treatment: DMSO) 5.15 ± 0.21; (treatment: MLN4924 1 uM, 8 h) 5.25 ± 0.13.
Taken in the same sequence, the figures for NSVISVCSSSNLAGNDDSFGSLPS [DLC1] were 4.18 ± 0.21 and 4.23 ± 0.24.
On to YTRLGEMNNAVRNLQELLELDSSS [CEP70], for which the protein stability index runs as follows: (treatment: DMSO) 3.77 ± 0.22; (treatment: MLN4924 1 uM, 8 h) 4.06 ± 0.17.
Taken in the same sequence, the figures for TAFLPDSKCLVDDGTGRMPTLKKC [GALNT9] were 4.17 ± 0.18 and 4.16 ± 0.31.
For SFQLFVEGYKDADYWLRRFEAEPL [PI4K2A], the protein stability index reads like this: (treatment: DMSO) 1.92 ± 0.41; (treatment: MLN4924 1 uM, 8 h) 2.35 ± 0.25.
Taken in the same sequence, the figures for GFRESDSAKPASLRLLQHTPSARR [C6orf223] were 4.49 ± 0.38 and 4.67 ± 0.3.
Taken in the same sequence, the figures for EAMYHCCWNTSYCSIKCQQEHWHA [ZMYND11] were 2.3 ± 0.45 and 2.65 ± 0.43.
Taken in the same sequence, the figures for SREWSGKEKWWDGQRDRKAEHWKH [PBXIP1] were 3.69 ± 0.27 and 3.91 ± 0.064.
In the case of QSDEEQDSVKVALLETNPYLLALT [CLPTM1], the protein stability index runs as follows: (treatment: DMSO) 3.92 ± 0.19; (treatment: MLN4924 1 uM, 8 h) 4.16 ± 0.3.
Taken in the same sequence, the figures for IEAGAHMDATNAFKKTAYELLDEK [FEM1A] were 4.79 ± 0.21 and 5.04 ± 0.34.
